What was measured:
[1] = target: T1, recombinant human CHI3L1 (human, UniProt P36222 22-383); experiment: BLI; Octet K2; CHI3L1 or IL-13Rα2 ECD immobilised on AR2G biosensor by amine coupling; CD44v3 peptide (15.6, 31.1, 62.5, 125, 250 μM) in the mobile phase; 20 mM HEPES, 150 mM NaCl, 0.05% Tween-20, 1 mM MgCl2 (or 5 mM EDTA); pH 7.4 in the results (pH 7.5 in the methods); heterogeneous ligand model; details: both partners purified
T1 construct: Chitinase 3-like-1 (CHI3L1, YKL-40), human, recombinant; also called rhCHI3L1; RhCHI3L1; source: bought: R&D Systems (Cat. #2599-CH)
T1 sequence (P36222 22-383): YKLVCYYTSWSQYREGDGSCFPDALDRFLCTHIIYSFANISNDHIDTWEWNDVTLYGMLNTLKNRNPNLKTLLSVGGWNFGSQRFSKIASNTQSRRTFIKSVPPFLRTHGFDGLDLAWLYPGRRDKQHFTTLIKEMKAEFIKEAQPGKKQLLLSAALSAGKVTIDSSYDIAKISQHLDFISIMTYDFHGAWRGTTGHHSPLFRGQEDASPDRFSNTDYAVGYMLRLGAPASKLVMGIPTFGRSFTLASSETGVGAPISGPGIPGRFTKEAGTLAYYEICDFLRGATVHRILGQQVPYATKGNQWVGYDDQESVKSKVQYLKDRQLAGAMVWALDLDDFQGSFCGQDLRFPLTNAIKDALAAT

[2] = target: T2, recombinant human IL-13Rα2 ECD (human, UniProt Q14627 27-343); experiment: as above; details: both partners purified
T2 construct: Interleukin-13 receptor alpha 2, human, extracellular domain; also called rhIL-13Rα2 ECD; Interleukin-13 receptor alpha 2; source: bought: Sino Biological (Cat. #10350-H08H-20)
T2 sequence (looked up): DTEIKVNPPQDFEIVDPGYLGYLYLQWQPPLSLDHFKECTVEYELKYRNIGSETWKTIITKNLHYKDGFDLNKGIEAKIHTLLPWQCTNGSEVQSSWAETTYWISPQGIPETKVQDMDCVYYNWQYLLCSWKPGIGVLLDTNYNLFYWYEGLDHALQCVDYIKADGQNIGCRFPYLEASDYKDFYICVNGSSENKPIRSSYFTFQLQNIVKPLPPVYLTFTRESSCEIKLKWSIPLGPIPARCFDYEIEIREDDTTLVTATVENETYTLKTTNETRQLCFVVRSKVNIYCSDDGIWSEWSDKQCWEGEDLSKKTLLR

Kd [1]: 443 ± 21.4 µM
koff [1]: 0.013 s⁻¹
kon [1]: 29.4 ± 1.39 M⁻¹ s⁻¹
Kd [2]: 563 ± 15.9 µM
koff [2]: 0.0162 s⁻¹
kon [2]: 28.8 ± 7.66 M⁻¹ s⁻¹
B1: CD44v3 peptide (peptide)
peptide: GWEPNEENEDERDRHLSFSGSGIDDDEDFISSTI
notes: peptide fragment of the v3 domain of CD44; contains the SGSG heparan sulfate assembly motif; also called peptide fragment of CD44v3 domain; source: synthetic peptide (ChinaPeptides Co., Ltd.)

Source: publication PMC6117920, “Chitinase 3-like 1-CD44 interaction promotes metastasis and epithelial-to-mesenchymal transition through β-catenin/Erk/Akt signaling in gastric cancer” (Journal of Experimental & Clinical Cancer Research : CR, 2018)
